# According to PMC12152508, “Altering 15‐Lipoxygenases to 18‐Lipoxygenases and Their Application to the Production of 5,18‐Dihydroxyeicosapentaenoic Acids” (Biotechnology and Bioengineering, 2025):
# Key:
# [1] = substrate: CC/C=C\C/C=C\C/C=C\C/C=C\C/C=C\CCCC(=O)O; test: purified protein; assay type: biochemical, Archangium violaceum; settings: 50 mM HEPES pH 8.5, 20°C
# [2] = substrate: CC/C=C\C/C=C\C/C=C\C/C=C\C/C=C\CCCC(=O)O; test: purified protein; assay type: biochemical, Sorangium cellulosum; settings: 50 mM HEPES pH 8.0, 20°C
Protein,Km ([1]; products 15S- and 18S-HpEPEs),kcat ([1]; products 15S- and 18S-HpEPEs),kcat/Km ([1]; products 15S- and 18S-HpEPEs),Km ([2]; products 15R- and 18R-HpEPEs),kcat ([2]; products 15R- and 18R-HpEPEs),kcat/Km ([2]; products 15R- and 18R-HpEPEs),further results
"15S-LOX from Archangium violaceum (Archangium violaceum Cb vi76; L429W/L430M/L575M) (protein, expressed from pET-28a(+) in E. coli C2566, His-Trap purified) MRSIPSLPQNDSPAQQELRLATLTQERQVYAYNFDSRLSPLGIAAQVPRQDNFSFVWLDGVATTGLQLLGNVLAIGAKLFDNGEAIQNDAGLSELELRRVEGTYRELTDGFSRLSDRTSRLHQAPRSPAVTLIADVIERPRTLLKAAGQKLEETAGVAIVSELATQAALDAPAIGQDILDLIDTLLKKLLSEAGDLFLKYLGLYGKAASLDNYTAQFSLLQPPSVASNYETDLIFARMRLAGPNPALLQGIAALPEKFPVTDAQYQSVMGSQDTLARAGQEGRLYLLDYAVFQGIPTGQTSGGQKYIEAPLALFAVPAANQADRKLRAVAIQCSQTPGRSNPIFTPADGTSWSLARLHVQVADGNYHELIAHLGLTHLILEEFTLSTHRQLAPQHPLYLLLTPHFQGTLAINNAAETSLIAPGGPVDQWMAGEIKASTQVSIQAVANQSINQSFLPRALAARGVDDASKLPDYPYRDDALLLWNDIRAWVSDYLAIYYNDDAAVRSDYELQAWVTELASPDAGKLKDVTEGGGGIQTFEYLVDLTTYIIFTASVQHAAVNFPQRTVMSYTPALPMAAYAPAPTSVEELPPSTELTHLPPLQMAFLQQAVTFGLGNVYFTRLGGYDTYLREPWFADARVWPALEVFQKRLRATEREIGQRNLSRIPYETLLPTAIPQSINI",221.3 µM,118 s⁻¹,530000 M⁻¹ s⁻¹,–,–,–,–
15R-LOX from Sorangium cellulosum (Sorangium cellulosum) (protein) MSNPSLPQNDSPAEQQQRKSELARAQQTYVYDHDTRLSPLGVAQSVPNGQGFAPILVGSAALVILDLVGNVVAKASKLVGSDGSLRSPKGAPLDDATSARIQGVLHDLKQRHRELTLVLTPLHGEPERAPAPPPRAPAVALVEGVAQKFVTTAENRAMESVLGATNLSTKNVGDIIKSLLDTLLSAAGKLLLDLVGMYGQATSVYDYVSEFQTFRLPEIASVYQDDAIFAWMRVAGPNPLVLKRVASPGASFPVTDAQYRSVMGEGDSLASAGKEGRLYLADYKALSQLVPGTAPDQQKYVEAPLALFAVPAAGAPSRLLRPVAIQCAQAPGAASPIFTPSDGVAWEVAKLHVQVADGNFHELISHLGQTHLVLEAFAMATPRQLAPEHPVNVLLTPHFQGTLAINNAAEADLIAPGGPVDNLLAGTIASSTQLAVDAVLSYSVNQQFLPVALAQRGVDDPSTLPSYPYRDDATLLWGAIHTWVSRYLAVYYTSDADVLGDYELQHWIAELSSPSGCGLKDIGEDGAIRTVAYLADLLTHVIFTASAQHAAVNFPQSSLMSFTPALPLAAYAPAPSITAGLPPSEIFQHLPPLQQALLQINVMMLLGGVYYSRLGDYDRNIPGAYFTDARVREPLEAFQRELMEIEATIGKRNLQRFPYVVLLPSQIPQSINI,–,–,–,–,–,–,Km ([2]; product 15R-HpEPE): 41.9 µM; kcat ([2]; product 15R-HpEPE): 68 s⁻¹; kcat/Km ([2]; product 15R-HpEPE): 1.62e+06 M⁻¹ s⁻¹
"15R-LOX from Sorangium cellulosum (Sorangium cellulosum; L423W) (protein, expressed from pET-28a(+) in E. coli C2566, His-Trap purified) MSNPSLPQNDSPAEQQQRKSELARAQQTYVYDHDTRLSPLGVAQSVPNGQGFAPILVGSAALVILDLVGNVVAKASKLVGSDGSLRSPKGAPLDDATSARIQGVLHDLKQRHRELTLVLTPLHGEPERAPAPPPRAPAVALVEGVAQKFVTTAENRAMESVLGATNLSTKNVGDIIKSLLDTLLSAAGKLLLDLVGMYGQATSVYDYVSEFQTFRLPEIASVYQDDAIFAWMRVAGPNPLVLKRVASPGASFPVTDAQYRSVMGEGDSLASAGKEGRLYLADYKALSQLVPGTAPDQQKYVEAPLALFAVPAAGAPSRLLRPVAIQCAQAPGAASPIFTPSDGVAWEVAKLHVQVADGNFHELISHLGQTHLVLEAFAMATPRQLAPEHPVNVLLTPHFQGTLAINNAAEADLIAPGGPVDNWLAGTIASSTQLAVDAVLSYSVNQQFLPVALAQRGVDDPSTLPSYPYRDDATLLWGAIHTWVSRYLAVYYTSDADVLGDYELQHWIAELSSPSGCGLKDIGEDGAIRTVAYLADLLTHVIFTASAQHAAVNFPQSSLMSFTPALPLAAYAPAPSITAGLPPSEIFQHLPPLQQALLQINVMMLLGGVYYSRLGDYDRNIPGAYFTDARVREPLEAFQRELMEIEATIGKRNLQRFPYVVLLPSQIPQSINI",–,–,–,69.8 µM,105 s⁻¹,1.5e+06 M⁻¹ s⁻¹,–
"15R-LOX from Sorangium cellulosum (Sorangium cellulosum; L423W/L424M) (protein, expressed from pET-28a(+) in E. coli C2566, His-Trap purified) MSNPSLPQNDSPAEQQQRKSELARAQQTYVYDHDTRLSPLGVAQSVPNGQGFAPILVGSAALVILDLVGNVVAKASKLVGSDGSLRSPKGAPLDDATSARIQGVLHDLKQRHRELTLVLTPLHGEPERAPAPPPRAPAVALVEGVAQKFVTTAENRAMESVLGATNLSTKNVGDIIKSLLDTLLSAAGKLLLDLVGMYGQATSVYDYVSEFQTFRLPEIASVYQDDAIFAWMRVAGPNPLVLKRVASPGASFPVTDAQYRSVMGEGDSLASAGKEGRLYLADYKALSQLVPGTAPDQQKYVEAPLALFAVPAAGAPSRLLRPVAIQCAQAPGAASPIFTPSDGVAWEVAKLHVQVADGNFHELISHLGQTHLVLEAFAMATPRQLAPEHPVNVLLTPHFQGTLAINNAAEADLIAPGGPVDNWMAGTIASSTQLAVDAVLSYSVNQQFLPVALAQRGVDDPSTLPSYPYRDDATLLWGAIHTWVSRYLAVYYTSDADVLGDYELQHWIAELSSPSGCGLKDIGEDGAIRTVAYLADLLTHVIFTASAQHAAVNFPQSSLMSFTPALPLAAYAPAPSITAGLPPSEIFQHLPPLQQALLQINVMMLLGGVYYSRLGDYDRNIPGAYFTDARVREPLEAFQRELMEIEATIGKRNLQRFPYVVLLPSQIPQSINI",–,–,–,43.3 µM,22.7 s⁻¹,520000 M⁻¹ s⁻¹,–
"15R-LOX from Sorangium cellulosum (Sorangium cellulosum; L423W/L424M/L568M) (protein, expressed from pET-28a(+) in E. coli C2566, His-Trap purified) MSNPSLPQNDSPAEQQQRKSELARAQQTYVYDHDTRLSPLGVAQSVPNGQGFAPILVGSAALVILDLVGNVVAKASKLVGSDGSLRSPKGAPLDDATSARIQGVLHDLKQRHRELTLVLTPLHGEPERAPAPPPRAPAVALVEGVAQKFVTTAENRAMESVLGATNLSTKNVGDIIKSLLDTLLSAAGKLLLDLVGMYGQATSVYDYVSEFQTFRLPEIASVYQDDAIFAWMRVAGPNPLVLKRVASPGASFPVTDAQYRSVMGEGDSLASAGKEGRLYLADYKALSQLVPGTAPDQQKYVEAPLALFAVPAAGAPSRLLRPVAIQCAQAPGAASPIFTPSDGVAWEVAKLHVQVADGNFHELISHLGQTHLVLEAFAMATPRQLAPEHPVNVLLTPHFQGTLAINNAAEADLIAPGGPVDNWMAGTIASSTQLAVDAVLSYSVNQQFLPVALAQRGVDDPSTLPSYPYRDDATLLWGAIHTWVSRYLAVYYTSDADVLGDYELQHWIAELSSPSGCGLKDIGEDGAIRTVAYLADLLTHVIFTASAQHAAVNFPQSSLMSFTPALPMAAYAPAPSITAGLPPSEIFQHLPPLQQALLQINVMMLLGGVYYSRLGDYDRNIPGAYFTDARVREPLEAFQRELMEIEATIGKRNLQRFPYVVLLPSQIPQSINI",–,–,–,253.7 µM,90.8 s⁻¹,360000 M⁻¹ s⁻¹,–
"15S-LOX from Archangium violaceum (Archangium violaceum Cb vi76) (protein, expressed from pET-28a(+) in E. coli C2566, His-Trap purified) MRSIPSLPQNDSPAQQELRLATLTQERQVYAYNFDSRLSPLGIAAQVPRQDNFSFVWLDGVATTGLQLLGNVLAIGAKLFDNGEAIQNDAGLSELELRRVEGTYRELTDGFSRLSDRTSRLHQAPRSPAVTLIADVIERPRTLLKAAGQKLEETAGVAIVSELATQAALDAPAIGQDILDLIDTLLKKLLSEAGDLFLKYLGLYGKAASLDNYTAQFSLLQPPSVASNYETDLIFARMRLAGPNPALLQGIAALPEKFPVTDAQYQSVMGSQDTLARAGQEGRLYLLDYAVFQGIPTGQTSGGQKYIEAPLALFAVPAANQADRKLRAVAIQCSQTPGRSNPIFTPADGTSWSLARLHVQVADGNYHELIAHLGLTHLILEEFTLSTHRQLAPQHPLYLLLTPHFQGTLAINNAAETSLIAPGGPVDQLLAGEIKASTQVSIQAVANQSINQSFLPRALAARGVDDASKLPDYPYRDDALLLWNDIRAWVSDYLAIYYNDDAAVRSDYELQAWVTELASPDAGKLKDVTEGGGGIQTFEYLVDLTTYIIFTASVQHAAVNFPQRTVMSYTPALPLAAYAPAPTSVEELPPSTELTHLPPLQMAFLQQAVTFGLGNVYFTRLGGYDTYLREPWFADARVWPALEVFQKRLRATEREIGQRNLSRIPYETLLPTAIPQSINI",–,–,–,–,–,–,Km ([1]; product 15S-HpEPE): 40.7 µM; kcat ([1]; product 15S-HpEPE): 61.4 s⁻¹; kcat/Km ([1]; product 15S-HpEPE): 1.51e+06 M⁻¹ s⁻¹
"15S-LOX from Archangium violaceum (Archangium violaceum Cb vi76; L429W) (protein, expressed from pET-28a(+) in E. coli C2566, His-Trap purified) MRSIPSLPQNDSPAQQELRLATLTQERQVYAYNFDSRLSPLGIAAQVPRQDNFSFVWLDGVATTGLQLLGNVLAIGAKLFDNGEAIQNDAGLSELELRRVEGTYRELTDGFSRLSDRTSRLHQAPRSPAVTLIADVIERPRTLLKAAGQKLEETAGVAIVSELATQAALDAPAIGQDILDLIDTLLKKLLSEAGDLFLKYLGLYGKAASLDNYTAQFSLLQPPSVASNYETDLIFARMRLAGPNPALLQGIAALPEKFPVTDAQYQSVMGSQDTLARAGQEGRLYLLDYAVFQGIPTGQTSGGQKYIEAPLALFAVPAANQADRKLRAVAIQCSQTPGRSNPIFTPADGTSWSLARLHVQVADGNYHELIAHLGLTHLILEEFTLSTHRQLAPQHPLYLLLTPHFQGTLAINNAAETSLIAPGGPVDQWLAGEIKASTQVSIQAVANQSINQSFLPRALAARGVDDASKLPDYPYRDDALLLWNDIRAWVSDYLAIYYNDDAAVRSDYELQAWVTELASPDAGKLKDVTEGGGGIQTFEYLVDLTTYIIFTASVQHAAVNFPQRTVMSYTPALPLAAYAPAPTSVEELPPSTELTHLPPLQMAFLQQAVTFGLGNVYFTRLGGYDTYLREPWFADARVWPALEVFQKRLRATEREIGQRNLSRIPYETLLPTAIPQSINI",35.6 µM,51.8 s⁻¹,1.45e+06 M⁻¹ s⁻¹,–,–,–,–
"15S-LOX from Archangium violaceum (Archangium violaceum Cb vi76; L429W/L430M) (protein, expressed from pET-28a(+) in E. coli C2566, His-Trap purified) MRSIPSLPQNDSPAQQELRLATLTQERQVYAYNFDSRLSPLGIAAQVPRQDNFSFVWLDGVATTGLQLLGNVLAIGAKLFDNGEAIQNDAGLSELELRRVEGTYRELTDGFSRLSDRTSRLHQAPRSPAVTLIADVIERPRTLLKAAGQKLEETAGVAIVSELATQAALDAPAIGQDILDLIDTLLKKLLSEAGDLFLKYLGLYGKAASLDNYTAQFSLLQPPSVASNYETDLIFARMRLAGPNPALLQGIAALPEKFPVTDAQYQSVMGSQDTLARAGQEGRLYLLDYAVFQGIPTGQTSGGQKYIEAPLALFAVPAANQADRKLRAVAIQCSQTPGRSNPIFTPADGTSWSLARLHVQVADGNYHELIAHLGLTHLILEEFTLSTHRQLAPQHPLYLLLTPHFQGTLAINNAAETSLIAPGGPVDQWMAGEIKASTQVSIQAVANQSINQSFLPRALAARGVDDASKLPDYPYRDDALLLWNDIRAWVSDYLAIYYNDDAAVRSDYELQAWVTELASPDAGKLKDVTEGGGGIQTFEYLVDLTTYIIFTASVQHAAVNFPQRTVMSYTPALPLAAYAPAPTSVEELPPSTELTHLPPLQMAFLQQAVTFGLGNVYFTRLGGYDTYLREPWFADARVWPALEVFQKRLRATEREIGQRNLSRIPYETLLPTAIPQSINI",57.2 µM,48.7 s⁻¹,850000 M⁻¹ s⁻¹,–,–,–,–
